Results on 22 molecules are retold here after patent US12552834 (MIT, dated 2026).

Read-outs that look alike come from different tables or passages of the source.

The target of test [1] is T1, ENAH EVH1 domain (monomeric, wild type) (human, UniProt Q03173 1-111 (mouse entry)).
T1 construct: ENAH residue numbers in the text count from the Met at position 25 of this entry; also called ENAH EVH1 WT; Mena EVH1 WT
The experiment in a line: BLI, steady state; SUMO-peptide immobilised, EVH1 monomer in solution. Background: Biolayer interferometry detects binding as a change in optical thickness at a sensor tip.
Experimental: (§1) All BLI experiments were performed with 2 replicates on an Octet Red96 instrument (ForteBio). […] The loaded tips were immersed in a solution of ENAH EVH1 domain at a relevant dilution series in BLI buffer at an orbital shake speed of 1000 rpm and run until the binding signal plateaued. ENAH-bound tips were subsequently placed into BLI buffer only for dissociation and run until the binding signal plateaued. K_D values were obtained through steady state analysis. […] The association phases were then fit to a one-phase binding model in Prism and the equilibrium steady-state binding signal values from that fit were plotted against ENAH concentration and fit to a single-site specific binding model in Prism to obtain dissociation constants. Errors reported are the standard deviation of two replicates.

The target in test [2] is T1, ENAH EVH1 domain (monomeric, wild type). The description is as above. This is another data set of the same source.
Experimental: as §1
For test [3], the target named is T2, ENAH EVH1 domain with Arg47 mutated to Ala (human, UniProt Q03173 1-111 (mouse entry)).
T2 construct: also called ENAH R47A; ENAH EVH1 R47A
The description is as above.
Experimental: as §1

The target of test [4] is T1, ENAH EVH1 domain (monomeric, wild type). The description is as above. This is another data set of the same source.
Experimental: as §1
The target is the same in test [5]. Briefly: BLI.
Experimental: as §1

The Kd is the constant that tells how readily two partners part at equilibrium.

T1 sequence (Q03173 other isoform, or with tags, fused parts or gaps limits assumed): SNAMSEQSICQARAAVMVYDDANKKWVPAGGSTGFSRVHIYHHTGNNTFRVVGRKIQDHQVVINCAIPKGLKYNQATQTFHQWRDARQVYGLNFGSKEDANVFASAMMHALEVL
T2 sequence (Q03173 other isoform, or with tags, fused parts or gaps limits assumed, stated change not applied): as the sequence (Q03173 other isoform, or with tags, fused parts or gaps limits assumed) above, with R50A counted along it

B1: NUTM2E 36-mer peptide (peptide)
peptide: MAGGLNDIFEAQKIEWHEDTGGSSHHHHHHGSGSGSDSEVNQEAKPEVKPEVKPETHINLKVSDGSSEIFFKIKKTTPLRRLMEAFAKRQGKEMDSLTFLYDGIEIQADQTPEDLDMEDNDIIEAHREQIGGSGSGVVPVMAAQVVGGTQACEGGWSQGLPLPPPPPPAAQL
modifications: biotinylated (BAP tag)
notes: Tested as a biotinylated BAP-6xHis-SUMO-peptide fusion
For B1, in test [1], the Kd came to 33.9 µM.

B2: LPP FP4 2 peptide (peptide)
peptide: MAGGLNDIFEAQKIEWHEDTGGSSHHHHHHGSGSGSDSEVNQEAKPEVKPEVKPETHINLKVSDGSSEIFFKIKKTTPLRRLMEAFAKRQGKEMDSLTFLYDGIEIQADQTPEDLDMEDNDIIEAHREQIGGSGSGPPLDDSSALPSISGNFPPPPPL
modifications: biotinylated (BAP tag)
notes: Truncation of the LPP 36mer that keeps the second FP4 motif, tested as a SUMO fusion
Regarding B2, the Kd in test [2] is 28.3 µM; in test [3], 75.2 µM.

B3: KIAA1522 36-mer peptide (peptide)
peptide: MAGGLNDIFEAQKIEWHEDTGGSSHHHHHHGSGSGSDSEVNQEAKPEVKPEVKPETHINLKVSDGSSEIFFKIKKTTPLRRLMEAFAKRQGKEMDSLTFLYDGIEIQADQTPEDLDMEDNDIIEAHREQIGGSGSGPPAPEEQDLSMADFPPPEEAFFSVASPEPAGPSGSP
modifications: biotinylated (BAP tag)
notes: Tested as a biotinylated BAP-6xHis-SUMO-peptide fusion; also called KIAAA1522
As to B3, binding in test [1] was characterised by a dissociation constant (Kd) of 14 µM.

B4: Minimum General peptide (peptide)
peptide: MAGGLNDIFEAQKIEWHEDTGGSSHHHHHHGSGSGSDSEVNQEAKPEVKPEVKPETHINLKVSDGSSEIFFKIKKTTPLRRLMEAFAKRQGKEMDSLTFLYDGIEIQADQTPEDLDMEDNDIIEAHREQIGGSGSGDFLPPPPGGGGGGSGSGGGSGSFPPPPGG
modifications: biotinylated (BAP tag)
notes: Engineered peptide, tested as a SUMO fusion
Take B4: the Kd in test [2] came out at 92.6 µM; in test [3] it was 86.9 µM.

B5: TNK2 36-mer peptide (peptide)
peptide: MAGGLNDIFEAQKIEWHEDTGGSSHHHHHHGSGSGSDSEVNQEAKPEVKPEVKPETHINLKVSDGSSEIFFKIKKTTPLRRLMEAFAKRQGKEMDSLTFLYDGIEIQADQTPEDLDMEDNDIIEAHREQIGGSGSGTPVVDWDARPLPPPPAYDDVAQDEDDFEICSINSTL
modifications: biotinylated (BAP tag)
notes: as for B1
B5: in test [1], the Kd was 21.2 µM.

B6: FP8 peptide (FPPPPPPPP) (peptide)
peptide: MAGGLNDIFEAQKIEWHEDTGGSSHHHHHHGSGSGSDSEVNQEAKPEVKPEVKPETHINLKVSDGSSEIFFKIKKTTPLRRLMEAFAKRQGKEMDSLTFLYDGIEIQADQTPEDLDMEDNDIIEAHREQIGGSGSGFPPPPPPPP
modifications: biotinylated (BAP tag)
notes: ABI1 truncation, tested as a SUMO fusion
On to B6, for which the Kd in test [4] turned out to be 28.5 µM. In addition, in test [5], the “fold decrease in affinity on truncation of the flank” value worked out at 3 fold.

B7: FP4S4 peptide (FPPPPSSSS) (peptide)
peptide: MAGGLNDIFEAQKIEWHEDTGGSSHHHHHHGSGSGSDSEVNQEAKPEVKPEVKPETHINLKVSDGSSEIFFKIKKTTPLRRLMEAFAKRQGKEMDSLTFLYDGIEIQADQTPEDLDMEDNDIIEAHREQIGGSGSGFPPPPSSSS
modifications: biotinylated (BAP tag)
notes: Tested as a SUMO fusion
With B7, the Kd in test [4] stood at 114 µM. The “fold reduction in affinity against …” value in test [5] is about 4 fold.

B8: FHOD1 peptide (peptide)
peptide: MAGGLNDIFEAQKIEWHEDTGGSSHHHHHHGSGSGSDSEVNQEAKPEVKPEVKPETHINLKVSDGSSEIFFKIKKTTPLRRLMEAFAKRQGKEMDSLTFLYDGIEIQADQTPEDLDMEDNDIIEAHREQIGGSGSGSVPPPPPLPPPPPIKGPFPPPPPLPLAAPLPHSVPD
modifications: biotinylated (BAP tag)
notes: as for B1
In turn, B8 showed a Kd in test [1] of 50.4 µM.

B9: NHSL1 Duplicated peptide (peptide)
peptide: MAGGLNDIFEAQKIEWHEDTGGSSHHHHHHGSGSGSDSEVNQEAKPEVKPEVKPETHINLKVSDGSSEIFFKIKKTTPLRRLMEAFAKRQGKEMDSLTFLYDGIEIQADQTPEDLDMEDNDIIEAHREQIGGSGSGADRSPFLPPPPPVTDCSQGSPLPHSPVPVTDCSQGSPLPHSPVFPPPPPEAL
modifications: biotinylated (BAP tag)
notes: Engineered variant, tested as a SUMO fusion
In the case of B9, the figures for the Kd in test [2] and in test [3] were 18.4 µM and 70 µM, respectively.

B10: ABI1 a peptide (peptide)
peptide: MAGGLNDIFEAQKIEWHEDTGGSSHHHHHHGSGSGSDSEVNQEAKPEVKPEVKPETHINLKVSDGSSEIFFKIKKTTPLRRLMEAFAKRQGKEMDSLTFLYDGIEIQADQTPEDLDMEDNDIIEAHREQIGGSGSGFDDFPPPPPPPPVDYED
modifications: biotinylated (BAP tag)
notes: as for B6
Take B10: in test [4], the Kd was 5.21 µM.

B11: SYNPO2 36-mer peptide (peptide)
peptide: MAGGLNDIFEAQKIEWHEDTGGSSHHHHHHGSGSGSDSEVNQEAKPEVKPEVKPETHINLKVSDGSSEIFFKIKKTTPLRRLMEAFAKRQGKEMDSLTFLYDGIEIQADQTPEDLDMEDNDIIEAHREQIGGSGSGKSPIADFPAPPPYSAVTPPPDAFSRGVSSPIAGPAQ
modifications: biotinylated (BAP tag)
notes: as for B1
Molecule B11 came in with a Kd in test [1] of 52.1 µM.

B12: NHSL1 FP4 1 peptide (peptide)
peptide: MAGGLNDIFEAQKIEWHEDTGGSSHHHHHHGSGSGSDSEVNQEAKPEVKPEVKPETHINLKVSDGSSEIFFKIKKTTPLRRLMEAFAKRQGKEMDSLTFLYDGIEIQADQTPEDLDMEDNDIIEAHREQIGGSGSGADRSPFLPPPPPVTDCSQGSPLPHSPV
modifications: biotinylated (BAP tag)
notes: Truncation of the NHSL1 36mer that keeps the first FP4 motif, tested as a SUMO fusion
Turning to B12, the values for the Kd in test [2] and in test [3] were 48.7 µM and 99.1 µM, respectively.

B13: LPP Duplicated peptide (peptide)
peptide: MAGGLNDIFEAQKIEWHEDTGGSSHHHHHHGSGSGSDSEVNQEAKPEVKPEVKPETHINLKVSDGSSEIFFKIKKTTPLRRLMEAFAKRQGKEMDSLTFLYDGIEIQADQTPEDLDMEDNDIIEAHREQIGGSGSGKQPGGEGDFLPPPPPPLDDSSALPSISGNDDSSALPSISGNFPPPPPL
modifications: biotinylated (BAP tag)
notes: as for B9
On to B13, for which the Kd was 6.66 µM in test [2] and 54.2 µM in test [3].

B14: TJAP1 36-mer peptide (peptide)
peptide: MAGGLNDIFEAQKIEWHEDTGGSSHHHHHHGSGSGSDSEVNQEAKPEVKPEVKPETHINLKVSDGSSEIFFKIKKTTPLRRLMEAFAKRQGKEMDSLTFLYDGIEIQADQTPEDLDMEDNDIIEAHREQIGGSGSGPEEELPLPAFEKLNPYPTPSPPHPLYPGRRVIEFSE
modifications: biotinylated (BAP tag)
notes: as for B1
B14 had a Kd in test [1] of 23.9 µM.

B15: SHROOM3 36-mer peptide (peptide)
peptide: MAGGLNDIFEAQKIEWHEDTGGSSHHHHHHGSGSGSDSEVNQEAKPEVKPEVKPETHINLKVSDGSSEIFFKIKKTTPLRRLMEAFAKRQGKEMDSLTFLYDGIEIQADQTPEDLDMEDNDIIEAHREQIGGSGSGVYSMDDFPPPPPHTVCEAQLDSEDPEGPRPSFNKLS
modifications: biotinylated (BAP tag)
notes: as for B1
B15: the Kd in test [1] turned out to be 9.3 µM. Against the preceding molecule, the Kd is about 2.6-fold lower.

B16: NHSL1 FP4 2 peptide (peptide)
peptide: MAGGLNDIFEAQKIEWHEDTGGSSHHHHHHGSGSGSDSEVNQEAKPEVKPEVKPETHINLKVSDGSSEIFFKIKKTTPLRRLMEAFAKRQGKEMDSLTFLYDGIEIQADQTPEDLDMEDNDIIEAHREQIGGSGSGPVTDCSQGSPLPHSPVFPPPPPEAL
modifications: biotinylated (BAP tag)
notes: Truncation of the NHSL1 36mer that keeps the second FP4 motif, tested as a SUMO fusion
Consider B16, for which the Kd came to 24.4 µM in test [2] and 51 µM in test [3].

B17: FYB1 36-mer peptide (peptide)
peptide: MAGGLNDIFEAQKIEWHEDTGGSSHHHHHHGSGSGSDSEVNQEAKPEVKPEVKPETHINLKVSDGSSEIFFKIKKTTPLRRLMEAFAKRQGKEMDSLTFLYDGIEIQADQTPEDLDMEDNDIIEAHREQIGGSGSGSGSGGIFPPPPDDDIYDGIEEEDADDGFPAPPKQLD
modifications: biotinylated (BAP tag)
notes: as for B1
In test [1], B17 returned a Kd of 24.3 µM. That is a double-digit micromolar value.

B18: LPP FP4 1 peptide (peptide)
peptide: MAGGLNDIFEAQKIEWHEDTGGSSHHHHHHGSGSGSDSEVNQEAKPEVKPEVKPETHINLKVSDGSSEIFFKIKKTTPLRRLMEAFAKRQGKEMDSLTFLYDGIEIQADQTPEDLDMEDNDIIEAHREQIGGSGSGKQPGGEGDFLPPPPPPLDDSSALPSISGN
modifications: biotinylated (BAP tag)
notes: Truncation of the LPP 36mer that keeps the first FP4 motif, tested as a SUMO fusion
B18: the Kd worked out at 12.4 µM in test [2] and 61.3 µM in test [3].

B19: ABI3 36-mer peptide (peptide)
peptide: MAGGLNDIFEAQKIEWHEDTGGSSHHHHHHGSGSGSDSEVNQEAKPEVKPEVKPETHINLKVSDGSSEIFFKIKKTTPLRRLMEAFAKRQGKEMDSLTFLYDGIEIQADQTPEDLDMEDNDIIEAHREQIGGSGSGSPPPPDEELPLPLDLPPPPPLDGDELGLPPPPPGFG
modifications: biotinylated (BAP tag)
notes: as for B1
B19 came in with a Kd in test [1] of 13.6 µM.

B20: LPP Minimal peptide (peptide)
peptide: MAGGLNDIFEAQKIEWHEDTGGSSHHHHHHGSGSGSDSEVNQEAKPEVKPEVKPETHINLKVSDGSSEIFFKIKKTTPLRRLMEAFAKRQGKEMDSLTFLYDGIEIQADQTPEDLDMEDNDIIEAHREQIGGSGSGGDFLPPPPPPLGGGSGSGGGSGSFPPPPPL
modifications: biotinylated (BAP tag)
notes: as for B9
With B20, the Kd in test [2] was 15.8 µM; in test [3], 124 µM. Moreover, in test [5], the “fold reduction in affinity relative to the LPP 36-mer” value is about 4 fold.

B21: FBLIM1 36-mer peptide (peptide)
peptide: MAGGLNDIFEAQKIEWHEDTGGSSHHHHHHGSGSGSDSEVNQEAKPEVKPEVKPETHINLKVSDGSSEIFFKIKKTTPLRRLMEAFAKRQGKEMDSLTFLYDGIEIQADQTPEDLDMEDNDIIEAHREQIGGSGSGPPVLDGEDVLPDLDLLPPPPPPPPVLLPSEEEAPAP
modifications: biotinylated (BAP tag)
notes: as for B1
The molecule B21 had a Kd in test [1] of 16 µM. That is a double-digit micromolar value.

B22: FDDFP8 peptide (peptide)
peptide: MAGGLNDIFEAQKIEWHEDTGGSSHHHHHHGSGSGSDSEVNQEAKPEVKPEVKPETHINLKVSDGSSEIFFKIKKTTPLRRLMEAFAKRQGKEMDSLTFLYDGIEIQADQTPEDLDMEDNDIIEAHREQIGGSGSGFDDFPPPPPPPP
modifications: biotinylated (BAP tag)
notes: as for B6
The molecule B22 gave a Kd in test [4] of 10.1 µM. The “fold decrease in affinity on truncation of the flank” value in test [5] was found to be 2.5 fold.
